Target: T1, human TGFßRII (antigen of the Octet experiments) (human, UniProt P37173 23-166)
T1 sequence (P37173 23-166): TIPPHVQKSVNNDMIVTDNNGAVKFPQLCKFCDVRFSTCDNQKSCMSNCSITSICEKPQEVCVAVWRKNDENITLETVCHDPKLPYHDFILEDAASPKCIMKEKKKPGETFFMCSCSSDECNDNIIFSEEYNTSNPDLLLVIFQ

Row | Binder | Kd
1 | XENP36181 H1.198 L1 (antibody, V domains shown) VH: QLQVQESGPGLVKPSETLSLTCTVSGGSISQSYFSWGWIRQPPGKGLEWIGSFYYGGKTYYNPSLKSRATISIDTSKNQFSLKLSSVTAADTAVYYCARGPTTIRGVIDSWGQGTLVTVSS VL: EIVLTQSPATLSLSPGERATLSCRASQSVRSYLAWYQQKPGQAPRLLIYDASNRATGIPARFSGSGSGTDFTLTISSLEPEDFAVYYCQQRSNWPPTFGQGTKVEIK | 8.4 nM
2 | XENP36180 H1.197 L1 (antibody, V domains shown) VH: QLQVQESGPGLVKPSETLSLTCTVSGGSISQSYFSWGWIRQPPGKGLEWIGSFYYGGKTYYNPSLKSRATISIDTSKNQFSLKLSSVTAADTAVYYCARGPTLIRGVIDSWGQGTLVTVSS VL: EIVLTQSPATLSLSPGERATLSCRASQSVRSYLAWYQQKPGQAPRLLIYDASNRATGIPARFSGSGSGTDFTLTISSLEPEDFAVYYCQQRSNWPPTFGQGTKVEIK | 6.07 nM
3 | XENP36171 H1.188 L1 (antibody, V domains shown) VH: QLQVQESGPGLVKPSETLSLTCTVSGGSISSSYFSWGWIRQPPGKGLEWIGSFYYGGKTYYNPSLKSRATISIDTSKNQFSLKLSSVTAADTAVYYCARGPTMIRGVIDSWGQGTLVTVSS VL: EIVLTQSPATLSLSPGERATLSCRASQSVRSYLAWYQQKPGQAPRLLIYDASNRATGIPARFSGSGSGTDFTLTISSLEPEDFAVYYCQQRSNWPPTFGQGTKVEIK | 4.19 nM
4 | XENP36178 H1.195 L1 (antibody, V domains shown) VH: QLQVQESGPGLVKPSETLSLTCTVSGGSISTSYFSWGWIRQPPGKGLEWIGSFYYGGKTYYNPSLKSRATISIDTSKNQFSLKLSSVTAADTAVYYCARGPTVIRGVIDSWGQGTLVTVSS VL: EIVLTQSPATLSLSPGERATLSCRASQSVRSYLAWYQQKPGQAPRLLIYDASNRATGIPARFSGSGSGTDFTLTISSLEPEDFAVYYCQQRSNWPPTFGQGTKVEIK | 8.42 nM
5 | XENP35105 H1.30 L1 (antibody, V domains shown) VH: QLQVQESGPGLVKPSETLSLTCTVSGGSISNSYFYWGWIRQPPGKGLEWIGSFYYGEKTYYNPSLKSRATISIDTSKSQFSLKLSSVTAADTAVYYCPRGPTMIRGVIDSWGQGTLVTVSS VL: EIVLTQSPATLSLSPGERATLSCRASQSVRSYLAWYQQKPGQAPRLLIYDASNRATGIPARFSGSGSGTDFTLTISSLEPEDFAVYYCQQRSNWPPTFGQGTKVEIK | 15.4 nM
6 | XENP36182 H1.199 L1 (antibody, V domains shown) VH: QLQVQESGPGLVKPSETLSLTCTVSGGSISQSYFSWGWIRQPPGKGLEWIGSFYYGGKTYYNPSLKSRATISIDTSKNQFSLKLSSVTAADTAVYYCARGPTVIRGVIDSWGQGTLVTVSS VL: EIVLTQSPATLSLSPGERATLSCRASQSVRSYLAWYQQKPGQAPRLLIYDASNRATGIPARFSGSGSGTDFTLTISSLEPEDFAVYYCQQRSNWPPTFGQGTKVEIK | 7.43 nM
7 | XENP36186 H1.203 L1 (antibody, V domains shown) VH: QLQVQESGPGLVKPSETLSLTCTVSGGSISNAYFSWGWIRQPPGKGLEWIGSFYYGGKTYYNPSLKSRATISIDTSKNQFSLKLSSVTAADTAVYYCARGPTVIRGVIDSWGQGTLVTVSS VL: EIVLTQSPATLSLSPGERATLSCRASQSVRSYLAWYQQKPGQAPRLLIYDASNRATGIPARFSGSGSGTDFTLTISSLEPEDFAVYYCQQRSNWPPTFGQGTKVEIK | 6.44 nM
8 | XENP36166 H1.183 L1 (antibody, V domains shown) VH: QLQVQESGPGLVKPSETLSLTCTVSGGSISNSYFSWGWIRQPPGKGLEWIGSFYYGGKTYYNPSLKSRATISIDTSKNQFSLKLSSVTAADTAVYYCARGPTMIRGVFDSWGQGTLVTVSS VL: EIVLTQSPATLSLSPGERATLSCRASQSVRSYLAWYQQKPGQAPRLLIYDASNRATGIPARFSGSGSGTDFTLTISSLEPEDFAVYYCQQRSNWPPTFGQGTKVEIK | 6.15 nM
9 | XENP36174 H1.191 L1 (antibody, V domains shown) VH: QLQVQESGPGLVKPSETLSLTCTVSGGSISSSYFSWGWIRQPPGKGLEWIGSFYYGGKTYYNPSLKSRATISIDTSKNQFSLKLSSVTAADTAVYYCARGPTVIRGVIDSWGQGTLVTVSS VL: EIVLTQSPATLSLSPGERATLSCRASQSVRSYLAWYQQKPGQAPRLLIYDASNRATGIPARFSGSGSGTDFTLTISSLEPEDFAVYYCQQRSNWPPTFGQGTKVEIK | 8.43 nM
10 | XENP36168 H1.185 L1 (antibody, V domains shown) VH: QLQVQESGPGLVKPSETLSLTCTVSGGSISESYFSWGWIRQPPGKGLEWIGSFYYGGKTYYNPSLKSRATISIDTSKNQFSLKLSSVTAADTAVYYCARGPTLIRGVIDSWGQGTLVTVSS VL: EIVLTQSPATLSLSPGERATLSCRASQSVRSYLAWYQQKPGQAPRLLIYDASNRATGIPARFSGSGSGTDFTLTISSLEPEDFAVYYCQQRSNWPPTFGQGTKVEIK | 7.26 nM
11 | XENP34288 H1.1 L1 (antibody, V domains shown) VH: QLQVQESGPGLVKPSETLSLTCTVSGGSISNSYFSWGWIRQPPGKGLEWIGSFYYGEKTYYNPSLKSRATISIDTSKSQFSLKLSSVTAADTAVYYCPRGPTVIRGVIDSWGQGTLVTVSS VL: EIVLTQSPATLSLSPGERATLSCRASQSVRSYLAWYQQKPGQAPRLLIYDASNRATGIPARFSGSGSGTDFTLTISSLEPEDFAVYYCQQRSNWPPTFGQGTKVEIK | 4.26 nM
12 | XENP36172 H1.189 L1 (antibody, V domains shown) VH: QLQVQESGPGLVKPSETLSLTCTVSGGSISSSYFSWGWIRQPPGKGLEWIGSFYYGGKTYYNPSLKSRATISIDTSKNQFSLKLSSVTAADTAVYYCARGPTLIRGVIDSWGQGTLVTVSS VL: EIVLTQSPATLSLSPGERATLSCRASQSVRSYLAWYQQKPGQAPRLLIYDASNRATGIPARFSGSGSGTDFTLTISSLEPEDFAVYYCQQRSNWPPTFGQGTKVEIK | 6.99 nM
13 | XENP36173 H1.190 L1 (antibody, V domains shown) VH: QLQVQESGPGLVKPSETLSLTCTVSGGSISSSYFSWGWIRQPPGKGLEWIGSFYYGGKTYYNPSLKSRATISIDTSKNQFSLKLSSVTAADTAVYYCARGPTTIRGVIDSWGQGTLVTVSS VL: EIVLTQSPATLSLSPGERATLSCRASQSVRSYLAWYQQKPGQAPRLLIYDASNRATGIPARFSGSGSGTDFTLTISSLEPEDFAVYYCQQRSNWPPTFGQGTKVEIK | 9.24 nM

Target: T1, human TGFßRII (antigen of the Octet …)
Remark: another data set of the same source

Row | Binder | Kd
14 | XENP37821 TBRII-A_H1.274_L1 (antibody, V domains shown) VH: QLQVQESGPGLVKPSETLSLTCTVSGGSISNAYFSWGWIRQPPGKGLEWIGSFNYGGKTYYNPSLKSRATISIDTSKNQFSLKLSSVTAADTAVYYCARGPTLIRGVIDSWGQGTLVTVSS VL: EIVLTQSPATLSLSPGERATLSCRASQSVRSYLAWYQQKPGQAPRLLIYDASNRATGIPARFSGSGSGTDFTLTISSLEPEDFAVYYCQQRSNWPPTFGQGTKVEIK | 16.8 nM
15 | XENP37814 TBRII-A_H1.189_L1.53 (antibody, V domains shown) VH: QLQVQESGPGLVKPSETLSLTCTVSGGSISSSYFSWGWIRQPPGKGLEWIGSFYYGGKTYYNPSLKSRATISIDTSKNQFSLKLSSVTAADTAVYYCARGPTLIRGVIDSWGQGTLVTVSS VL: EIVLTQSPATLSLSPGERATLSCRASQSVRSYLAWYQQKPGQAPRLLIYDASNRATGIPARFSGSGSGTDFTLTISSLEPEDFAVYYCQQRSNYPPTFGQGTKVEIK | 58.9 nM
16 | TBRII-A_H1.29_L1 (antibody, V domains shown) VH: QLQVQESGPGLVKPSETLSLTCTVSGGSISNSYFTWGWIRQPPGKGLEWIGSFYYGEKTYYNPSLKSRATISIDTSKSQFSLKLSSVTAADTAVYYCPRGPTMIRGVIDSWGQGTLVTVSS VL: EIVLTQSPATLSLSPGERATLSCRASQSVRSYLAWYQQKPGQAPRLLIYDASNRATGIPARFSGSGSGTDFTLTISSLEPEDFAVYYCQQRSNWPPTFGQGTKVEIK | 4.2 nM
17 | XENP37815 TBRII-A_H1.271_L1.53 (antibody, V domains shown) VH: QLQVQESGPGLVKPSETLSLTCTVSGGSISSSYFSWHWIRQPPGKGLEWIGSFYYGGKTYYNPSLKSRATISIDTSKNQFSLKLSSVTAADTAVYYCARGPTLIRGVIDSWGQGTLVTVSS VL: EIVLTQSPATLSLSPGERATLSCRASQSVRSYLAWYQQKPGQAPRLLIYDASNRATGIPARFSGSGSGTDFTLTISSLEPEDFAVYYCQQRSNYPPTFGQGTKVEIK | 411 nM
18 | XENP37819 TBRII-A_H1.273_L1.53 (antibody, V domains shown) VH: QLQVQESGPGLVKPSETLSLTCTVSGGSISSSYFSWHWIRQPPGKGLEWIGSFYYGGKTYYNPSLKSRATISIDTSKNQFSLKLSSVTAADTAVYYCARGPTTIRGVIDSWGQGTLVTVSS VL: EIVLTQSPATLSLSPGERATLSCRASQSVRSYLAWYQQKPGQAPRLLIYDASNRATGIPARFSGSGSGTDFTLTISSLEPEDFAVYYCQQRSNYPPTFGQGTKVEIK | 7.7 nM
19 | XENP37817 TBRII-A_H1.272_L1 (antibody, V domains shown) VH: QLQVQESGPGLVKPSETLSLTCTVSGGSISSSYFSWGWIRQPPGKGLEWIGSFNYGGKTYYNPSLKSRATISIDTSKNQFSLKLSSVTAADTAVYYCARGPTTIRGVIDSWGQGTLVTVSS VL: EIVLTQSPATLSLSPGERATLSCRASQSVRSYLAWYQQKPGQAPRLLIYDASNRATGIPARFSGSGSGTDFTLTISSLEPEDFAVYYCQQRSNWPPTFGQGTKVEIK | 58.2 nM
20 | TBRII-A_H1.51_L1 (antibody, V domains shown) VH: QLQVQESGPGLVKPSETLSLTCTVSGGSISNSYFSWGWIRQPPGKGLEWIGSFNYGEKTYYNPSLKSRATISIDTSKSQFSLKLSSVTAADTAVYYCPRGPTMIRGVIDSWGQGTLVTVSS VL: EIVLTQSPATLSLSPGERATLSCRASQSVRSYLAWYQQKPGQAPRLLIYDASNRATGIPARFSGSGSGTDFTLTISSLEPEDFAVYYCQQRSNWPPTFGQGTKVEIK | 53 nM
21 | XENP37822 TBRII-A_H1.201_L1.53 (antibody, V domains shown) VH: QLQVQESGPGLVKPSETLSLTCTVSGGSISNAYFSWGWIRQPPGKGLEWIGSFYYGGKTYYNPSLKSRATISIDTSKNQFSLKLSSVTAADTAVYYCARGPTLIRGVIDSWGQGTLVTVSS VL: EIVLTQSPATLSLSPGERATLSCRASQSVRSYLAWYQQKPGQAPRLLIYDASNRATGIPARFSGSGSGTDFTLTISSLEPEDFAVYYCQQRSNYPPTFGQGTKVEIK | 46.6 nM
22 | TBRII-A_H1.1_L1 (antibody, V domains shown) VH: QLQVQESGPGLVKPSETLSLTCTVSGGSISNSYFSWGWIRQPPGKGLEWIGSFYYGEKTYYNPSLKSRATISIDTSKSQFSLKLSSVTAADTAVYYCPRGPTVIRGVIDSWGQGTLVTVSS VL: EIVLTQSPATLSLSPGERATLSCRASQSVRSYLAWYQQKPGQAPRLLIYDASNRATGIPARFSGSGSGTDFTLTISSLEPEDFAVYYCQQRSNWPPTFGQGTKVEIK | 2.1 nM
